Laboratory results taken from patent US20200102387A1 (CELGENE, published 2020).
Blank lines part the entries; values can stand above or below the binder they belong to.

How the values were obtained:
[1] = target: T1, SIRPγ extracellular domain (human, UniProt Q9P1W8 29-360); assay: SPR Biacore T200, antibody on Protein A chip, 1:1 Langmuir fit
T1 construct: also called hSIRPγ - ECD

[2] = target: T2, extracellular domain of SIRPα v1-DLN (e.g. SIRPα1) (human, UniProt P78324 31-373); assay: as above
T2 construct: also called hSIRPα - ECD (v1)

[3] = target: T3, SIRPβ extracellular domain (human, UniProt O00241 30-371); assay: as above
T3 construct: also called hSIRPβ - ECD
T3 chain: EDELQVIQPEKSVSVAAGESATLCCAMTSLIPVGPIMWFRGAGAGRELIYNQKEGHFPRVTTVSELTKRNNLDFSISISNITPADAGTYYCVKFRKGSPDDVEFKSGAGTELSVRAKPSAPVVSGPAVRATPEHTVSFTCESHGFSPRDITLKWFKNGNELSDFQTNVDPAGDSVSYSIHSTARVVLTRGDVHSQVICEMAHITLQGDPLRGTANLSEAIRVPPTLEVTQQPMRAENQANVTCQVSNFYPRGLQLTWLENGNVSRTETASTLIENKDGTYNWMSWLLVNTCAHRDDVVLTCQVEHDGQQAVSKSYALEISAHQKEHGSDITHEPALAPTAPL

mouse SIRPα on cells [4] = target: T4, mouse SIRPα on cells (mouse, UniProt P97797 32-513); assay: flow cytometry, C57/BL6 macrophages, anti-human Fc detection; C57/BL6 macrophages (whole cells), not SIRPα-CHO-K1
T4 construct: whole, on cells; also called mouse SIRPα-CHO-K1; Ms SIRPα-CHO-K1
T4 sequence (looked up): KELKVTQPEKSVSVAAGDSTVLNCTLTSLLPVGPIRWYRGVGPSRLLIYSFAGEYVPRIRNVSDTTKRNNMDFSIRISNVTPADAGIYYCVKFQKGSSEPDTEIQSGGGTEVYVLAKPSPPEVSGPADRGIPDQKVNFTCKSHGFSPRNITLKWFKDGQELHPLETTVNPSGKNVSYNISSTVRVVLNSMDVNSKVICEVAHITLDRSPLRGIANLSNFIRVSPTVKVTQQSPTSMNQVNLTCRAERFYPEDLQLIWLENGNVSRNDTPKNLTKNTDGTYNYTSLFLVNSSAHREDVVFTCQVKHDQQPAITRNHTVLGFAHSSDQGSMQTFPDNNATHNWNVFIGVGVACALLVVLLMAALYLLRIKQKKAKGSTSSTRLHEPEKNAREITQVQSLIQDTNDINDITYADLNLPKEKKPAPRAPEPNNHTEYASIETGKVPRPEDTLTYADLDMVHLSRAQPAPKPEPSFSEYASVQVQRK

mouse SIRPα on cells [5] = target: T4, mouse SIRPα on cells; assay: flow cytometry, C57BL/6-CD11b+ Cell Binding
mouse SIRPα on cells [6] = target: T4, mouse SIRPα on cells; assay: flow cytometry competition on C57/BL6 macrophages, competitor mCD47-hFc 6.7 nM, antibody at 0.5 nM or more
[7] = target: T5, cynomolgus SIRPα on cells (cynomolgus, UniProt P78324 31-373 (human entry)); assay: flow cytometry, cyno whole blood, gated CD14+ population, PE-conjugated antibody, one of two donors
T5 construct: also called cyno SIRPα-CHO; Cyno SIRPα-CHO-K1; not shown: Transmembrane and cytoplasmic region of cynomolgus SIRPα
T5 chain: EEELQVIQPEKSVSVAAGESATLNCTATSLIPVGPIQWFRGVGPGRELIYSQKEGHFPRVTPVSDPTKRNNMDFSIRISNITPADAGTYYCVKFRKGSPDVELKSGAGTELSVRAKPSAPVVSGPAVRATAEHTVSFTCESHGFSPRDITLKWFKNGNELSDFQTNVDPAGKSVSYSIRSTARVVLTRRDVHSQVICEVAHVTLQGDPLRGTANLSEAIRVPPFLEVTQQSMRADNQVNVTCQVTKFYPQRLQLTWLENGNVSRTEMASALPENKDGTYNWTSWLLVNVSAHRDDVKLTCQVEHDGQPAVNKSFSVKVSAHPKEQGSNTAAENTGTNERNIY

FcγR3A (CD16aV158) = target: T6, FcγR3A (CD16aV158) (human, UniProt P08637 17-254); assay: cell binding, FcγR-engineered HEK293 cells
T6 construct: whole, on cells

FcγR1 (CD64) = target: T7, FcγR1 (CD64) (human, UniProt P12314 16-374); assay: cell binding, FcγR-engineered HEK293 cells
T7 construct: whole, on cells

FcγR2B = target: T8, FcγR2B (human, UniProt P31994 43-310); assay: cell binding, FcγR-engineered HEK293 cells
T8 construct: whole, on cells
T8 sequence (looked up): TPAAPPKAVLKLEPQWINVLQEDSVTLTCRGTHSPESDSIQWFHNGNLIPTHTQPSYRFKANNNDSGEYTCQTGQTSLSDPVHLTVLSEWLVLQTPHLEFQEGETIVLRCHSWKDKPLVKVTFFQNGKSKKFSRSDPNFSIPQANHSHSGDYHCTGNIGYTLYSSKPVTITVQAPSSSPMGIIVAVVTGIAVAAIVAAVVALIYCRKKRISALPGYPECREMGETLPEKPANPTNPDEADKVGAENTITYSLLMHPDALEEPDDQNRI

[8] = target: T5, cynomolgus SIRPα on cells; assay: flow cytometry of cynomolgus whole blood, gated CD14+ cells, Donor 2
[9] = target: T5, cynomolgus SIRPα on cells; assay: flow cytometry of cynomolgus whole blood, gated CD14+ cells, Donor 1

T1 sequence (Q9P1W8 29-360 limits assumed): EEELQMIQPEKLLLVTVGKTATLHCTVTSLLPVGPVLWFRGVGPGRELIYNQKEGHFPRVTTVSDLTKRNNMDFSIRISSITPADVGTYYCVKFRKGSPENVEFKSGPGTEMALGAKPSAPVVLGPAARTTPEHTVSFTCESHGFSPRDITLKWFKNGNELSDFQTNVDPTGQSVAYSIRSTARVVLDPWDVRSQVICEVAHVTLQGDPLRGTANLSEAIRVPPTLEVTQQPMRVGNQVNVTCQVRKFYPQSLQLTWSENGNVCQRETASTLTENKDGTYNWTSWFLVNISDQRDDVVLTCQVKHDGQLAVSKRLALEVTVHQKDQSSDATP
T7 sequence (P12314 16-374): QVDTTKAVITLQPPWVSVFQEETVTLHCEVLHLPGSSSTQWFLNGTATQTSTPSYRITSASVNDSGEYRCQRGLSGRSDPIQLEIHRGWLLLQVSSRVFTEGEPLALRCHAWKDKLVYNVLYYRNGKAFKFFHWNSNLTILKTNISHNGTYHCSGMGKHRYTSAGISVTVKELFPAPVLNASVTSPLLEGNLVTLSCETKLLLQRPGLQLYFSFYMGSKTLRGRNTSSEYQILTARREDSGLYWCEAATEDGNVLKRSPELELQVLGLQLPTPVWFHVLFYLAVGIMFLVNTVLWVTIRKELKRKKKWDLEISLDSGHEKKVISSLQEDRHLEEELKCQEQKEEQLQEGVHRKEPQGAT
T6 sequence (P08637 17-254 F176V): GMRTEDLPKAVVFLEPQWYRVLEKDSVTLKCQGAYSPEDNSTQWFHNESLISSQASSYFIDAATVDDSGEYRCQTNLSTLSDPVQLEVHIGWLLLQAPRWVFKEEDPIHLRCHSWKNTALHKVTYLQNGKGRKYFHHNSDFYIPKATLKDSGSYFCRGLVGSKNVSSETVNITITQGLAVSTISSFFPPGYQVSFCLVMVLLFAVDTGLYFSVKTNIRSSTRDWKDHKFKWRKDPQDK

Kd [1]: 1.47 nM | Kd [2]: 3.65 nM | Kd [3]: 2.98 nM
B1: … ANTIBODY (SIRPα reference antibody with light chain SEQ ID NO:224 and heavy chain SEQ ID NO:225) (antibody, human IgG1, kappa, V domains shown)
VH: EVQLQQSGAELVKPGASVKLSCTASGFNIKDYYIHWVQQRTEQGLEWIGRIDPEDGETKYAPKFQDKATITADTSSNTAYLHLSSLTSEDTAVYYCARWGAYWGQGTLVTVSA
VL: QIVLTQSPAIMSASPGEKVTLTCSASSSVSSSYLYWYQQKPGSSPKLWIYSTSNLASGVPARFSGSGSGTSYSLTISSMEAEDAASYFCHQWSSYPRTFGAGTKLELKR

EC50 (mouse SIRPα on cells [4]): 6.7 nM
B2: mCD47-hFc (Fc fusion, mouse, UniProt Q61735 19-140, looked up, not shown: a dimerising Fc or GST)
chain: QLLFSNVNSIEFTSCNETVVIPCIVRNVEAQSTEEMFVKWKLNKSYIFIYDGNKNSTTTDQNFTSAKISVSDLINGIASLKMDKRDAMVGNYTCEVTELSREGKTVIELKNRTVSWFSPNEK
notes: also called recombinant mouse CD47

EC50 (read off the curve) (mouse SIRPα on cells [5]): ~0.3 nM | percent of mCD47 binding blocked (mouse SIRPα on cells [6]): > 90%
B3: SIRPAB-21 with mouse IgG2a (antibody, V domains shown)
VH: QVQLQESGPGLVKPSQTLSLTCTVSGGSISSGGYYWSWIRQHPGKGLEWIGAIYYSGPIYYNPSLKSRVTISVDTSKNQFSLKLSSVTAADTAVYYCSKEGYHSGMDVWGQGTTVTVSS
VL: DIQMTQSPSSLSASVGDRVTITCQASDDISDYLNWYQQKPGKAPKLLIYDASNLETGVPSRFSGSGSGTDFTFTISSLQPEDIATYYCQQFAYLPWTFGGGTKVEIK

Kd [1]: 0.351 nM | Kd [2]: 0.424 nM | Kd [3]: 2.08 nM
B4: SIRPAB-12-K322A (antibody, human IgG1, kappa)
light: DIQMTQSPSSVSASVGDRVTITCRASQGISSWLAWYQQKPGKAPKLLIYAASNLQSGVPSRFSGSGSGTDFTLTISSLQPEDFATYYCQQGASFPITFGGGTKVEIKRTVAAPSVFIFPPSDEQLKSGTASVVCLLNNFYPREAKVQWKVDNALQSGNSQESVTEQDSKDSTYSLSSTLTLSKADYEKHKVYACEVTHQGLSSPVTKSFNRGEC
heavy: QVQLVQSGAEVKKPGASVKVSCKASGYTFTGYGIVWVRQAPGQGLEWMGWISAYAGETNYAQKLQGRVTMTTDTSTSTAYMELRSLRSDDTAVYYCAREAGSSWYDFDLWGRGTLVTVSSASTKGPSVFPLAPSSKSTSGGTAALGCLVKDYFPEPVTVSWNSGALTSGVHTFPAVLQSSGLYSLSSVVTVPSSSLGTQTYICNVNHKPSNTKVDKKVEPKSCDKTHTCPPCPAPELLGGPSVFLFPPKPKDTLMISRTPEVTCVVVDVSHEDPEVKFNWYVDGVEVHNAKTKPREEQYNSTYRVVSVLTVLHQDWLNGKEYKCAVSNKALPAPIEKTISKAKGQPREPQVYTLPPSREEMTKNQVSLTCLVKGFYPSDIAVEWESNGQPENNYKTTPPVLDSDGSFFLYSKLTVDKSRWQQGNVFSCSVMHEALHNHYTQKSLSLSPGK
notes: human IgG1 with K322A

EC50 [7]: 0.43 nM | EC50 (FcγR3A (CD16aV158)): 2060 nM | EC50 (FcγR1 (CD64)): 756 nM | EC50 (FcγR2B): 5180 nM | EC50 [8]: 0.39 nM | EC50 [9]: 0.426 nM
B5: SIRPAB-11-4PE (antibody, human IgG4 S228P, kappa)
light: B4 light
heavy: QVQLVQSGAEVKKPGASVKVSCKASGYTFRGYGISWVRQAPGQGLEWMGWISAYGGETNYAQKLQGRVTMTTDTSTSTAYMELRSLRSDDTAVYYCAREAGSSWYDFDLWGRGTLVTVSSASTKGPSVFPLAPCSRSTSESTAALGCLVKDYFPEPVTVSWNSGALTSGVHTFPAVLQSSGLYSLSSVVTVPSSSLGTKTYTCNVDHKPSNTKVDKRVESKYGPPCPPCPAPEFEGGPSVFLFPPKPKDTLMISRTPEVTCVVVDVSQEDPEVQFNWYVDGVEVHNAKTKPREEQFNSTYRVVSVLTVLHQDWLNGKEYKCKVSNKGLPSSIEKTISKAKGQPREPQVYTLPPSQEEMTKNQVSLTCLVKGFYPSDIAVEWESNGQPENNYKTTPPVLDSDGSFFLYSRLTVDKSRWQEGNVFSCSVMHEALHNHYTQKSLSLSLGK
notes: human IgG4 with S228P and L235E; also called SIRPAB-11-IgG4PE; SIRPAB-11-IgG4PE-AF647
